Assay results: patent US20140249045A1 (MEDICINAL BIOCONVERGENCE RESEARCH CENTER, published 2014)
Values belong to the binder of their own block, whether it stands above or below them.

B2: HA-tagged RagD (enzyme, UniProt Q9NQL2 1-400, looked up)
chain: MSQVLGKPQPQDEDDAEEEEEEDELVGLADYGDGPDSSDADPDSGTEEGVLDFSDPFSTEVKPRILLMGLRRSGKSSIQKVVFHKMSPNETLFLESTNKICREDVSNSSFVNFQIWDFPGQIDFFDPTFDYEMIFRGTGALIFVIDSQDDYMEALARLHLTVTRAYKVNTDINFEVFIHKVDGLSDDHKIETQRDIHQRANDDLADAGLEKIHLSFYLTSIYDHSIFEAFSKVVQKLIPQLPTLENLLNIFISNSGIEKAFLFDVVSKIYIATDSTPVDMQTYELCCDMIDVVIDISCIYGLKEDGAGTPYDKESTAIIKLNNTTVLYLKEVTKFLALVCFVREESFERKGLIDYNFHCFRKAIHEVFEVRMKVVKSRKVQNRLQKKKRATPNGTPRVLL
notes: Expressed in 293T cells, used as cell lysate; also called HA-RagD; not shown: HA tag

Assays:
[1] = molecular target: T1, endogenous LRS of 293T cells (Homo sapiens (Human), UniProt Q9P2J5 1-1176); assay: immunoprecipitation of 293T lysates with anti-Raptor antibody, anti-LRS and anti-RagD blots (FIG. 4a)
T1 construct: Endogenous protein in HEK293T cell lysates, detected with anti-LRS antibody
Method: 293T cells were starved for amino acids for 1 hour and re-stimulated with amino acids for 5 min.

[2] = molecular target: T2, myc-tagged methionyl-tRNA synthetase (MRS) (UniProt P56192 1-900); assay: co-immunoprecipitation with anti-HA antibody, anti-myc blot (FIG. 3c)
T2 construct: also called myc-tagged MRS; not shown: myc tag
T2 sequence (looked up): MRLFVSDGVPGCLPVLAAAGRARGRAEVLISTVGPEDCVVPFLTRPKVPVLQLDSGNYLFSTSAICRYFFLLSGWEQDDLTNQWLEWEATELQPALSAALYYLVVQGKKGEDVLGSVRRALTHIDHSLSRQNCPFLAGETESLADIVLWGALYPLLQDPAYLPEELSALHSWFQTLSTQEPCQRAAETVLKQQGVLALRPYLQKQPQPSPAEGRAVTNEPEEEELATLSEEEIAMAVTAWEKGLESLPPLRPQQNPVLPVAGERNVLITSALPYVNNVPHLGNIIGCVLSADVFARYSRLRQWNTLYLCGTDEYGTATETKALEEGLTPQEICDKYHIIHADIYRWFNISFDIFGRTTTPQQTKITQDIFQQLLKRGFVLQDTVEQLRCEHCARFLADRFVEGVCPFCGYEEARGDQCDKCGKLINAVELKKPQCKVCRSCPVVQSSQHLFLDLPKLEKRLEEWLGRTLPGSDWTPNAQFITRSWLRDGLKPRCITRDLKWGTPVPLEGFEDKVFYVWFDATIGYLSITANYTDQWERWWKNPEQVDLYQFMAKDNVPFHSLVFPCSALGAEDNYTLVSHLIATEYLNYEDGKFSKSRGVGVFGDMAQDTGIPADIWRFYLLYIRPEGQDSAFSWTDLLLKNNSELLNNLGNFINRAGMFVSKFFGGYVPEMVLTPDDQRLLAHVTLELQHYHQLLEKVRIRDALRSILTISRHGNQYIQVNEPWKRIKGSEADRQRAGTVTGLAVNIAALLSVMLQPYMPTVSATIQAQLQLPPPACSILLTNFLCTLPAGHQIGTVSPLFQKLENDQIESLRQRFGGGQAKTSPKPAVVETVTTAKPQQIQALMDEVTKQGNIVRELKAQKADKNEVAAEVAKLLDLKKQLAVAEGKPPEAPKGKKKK
Method: (§1) The co-precipitated myc-tagged protein was determined by immunoblotting with anti-myc antibodies.

[3] = molecular target: T3, myc-tagged isoleucyl-tRNA synthetase (IRS) (UniProt P41252 1-1262); assay: as above
T3 construct: also called myc-tagged IRS; not shown: myc tag
T3 sequence (looked up): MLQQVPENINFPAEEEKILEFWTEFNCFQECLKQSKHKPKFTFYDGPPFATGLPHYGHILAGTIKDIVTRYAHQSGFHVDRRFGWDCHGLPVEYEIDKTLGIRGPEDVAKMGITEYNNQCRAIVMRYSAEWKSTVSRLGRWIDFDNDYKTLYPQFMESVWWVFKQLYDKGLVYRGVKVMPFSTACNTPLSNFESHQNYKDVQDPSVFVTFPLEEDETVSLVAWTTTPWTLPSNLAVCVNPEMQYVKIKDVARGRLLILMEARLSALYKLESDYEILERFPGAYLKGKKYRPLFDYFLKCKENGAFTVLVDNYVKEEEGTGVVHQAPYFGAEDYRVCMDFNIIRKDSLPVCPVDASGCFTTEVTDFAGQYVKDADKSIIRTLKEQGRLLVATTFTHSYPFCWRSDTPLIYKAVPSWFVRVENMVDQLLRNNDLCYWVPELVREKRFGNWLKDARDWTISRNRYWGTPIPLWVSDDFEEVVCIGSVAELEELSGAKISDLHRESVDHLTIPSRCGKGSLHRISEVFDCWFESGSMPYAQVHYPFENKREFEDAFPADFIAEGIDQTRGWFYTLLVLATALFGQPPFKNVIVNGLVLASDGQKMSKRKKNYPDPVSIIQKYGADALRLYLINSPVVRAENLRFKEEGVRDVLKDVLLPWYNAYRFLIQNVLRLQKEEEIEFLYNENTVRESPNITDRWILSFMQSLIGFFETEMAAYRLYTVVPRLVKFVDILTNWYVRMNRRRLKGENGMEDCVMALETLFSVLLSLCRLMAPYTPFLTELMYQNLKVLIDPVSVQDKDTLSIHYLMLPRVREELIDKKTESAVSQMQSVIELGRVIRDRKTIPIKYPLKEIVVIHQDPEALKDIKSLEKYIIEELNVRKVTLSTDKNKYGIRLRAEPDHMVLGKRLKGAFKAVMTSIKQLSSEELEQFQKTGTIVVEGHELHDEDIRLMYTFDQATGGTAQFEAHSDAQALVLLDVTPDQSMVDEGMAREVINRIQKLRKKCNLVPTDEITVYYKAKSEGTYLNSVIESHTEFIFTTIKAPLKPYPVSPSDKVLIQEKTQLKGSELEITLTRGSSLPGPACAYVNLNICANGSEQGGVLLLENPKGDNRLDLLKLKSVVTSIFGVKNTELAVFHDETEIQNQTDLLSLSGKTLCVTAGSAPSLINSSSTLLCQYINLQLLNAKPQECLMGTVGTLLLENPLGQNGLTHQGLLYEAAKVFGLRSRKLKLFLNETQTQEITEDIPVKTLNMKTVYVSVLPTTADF
Method: as §1

[4] = molecular target: T4, myc-tagged glutamyl-prolyl-tRNA synthetase (EPRS) (UniProt P07814 1-1512); assay: as above
T4 construct: also called myc-tagged EPRS; not shown: myc tag
T4 sequence (P07814 whole entry): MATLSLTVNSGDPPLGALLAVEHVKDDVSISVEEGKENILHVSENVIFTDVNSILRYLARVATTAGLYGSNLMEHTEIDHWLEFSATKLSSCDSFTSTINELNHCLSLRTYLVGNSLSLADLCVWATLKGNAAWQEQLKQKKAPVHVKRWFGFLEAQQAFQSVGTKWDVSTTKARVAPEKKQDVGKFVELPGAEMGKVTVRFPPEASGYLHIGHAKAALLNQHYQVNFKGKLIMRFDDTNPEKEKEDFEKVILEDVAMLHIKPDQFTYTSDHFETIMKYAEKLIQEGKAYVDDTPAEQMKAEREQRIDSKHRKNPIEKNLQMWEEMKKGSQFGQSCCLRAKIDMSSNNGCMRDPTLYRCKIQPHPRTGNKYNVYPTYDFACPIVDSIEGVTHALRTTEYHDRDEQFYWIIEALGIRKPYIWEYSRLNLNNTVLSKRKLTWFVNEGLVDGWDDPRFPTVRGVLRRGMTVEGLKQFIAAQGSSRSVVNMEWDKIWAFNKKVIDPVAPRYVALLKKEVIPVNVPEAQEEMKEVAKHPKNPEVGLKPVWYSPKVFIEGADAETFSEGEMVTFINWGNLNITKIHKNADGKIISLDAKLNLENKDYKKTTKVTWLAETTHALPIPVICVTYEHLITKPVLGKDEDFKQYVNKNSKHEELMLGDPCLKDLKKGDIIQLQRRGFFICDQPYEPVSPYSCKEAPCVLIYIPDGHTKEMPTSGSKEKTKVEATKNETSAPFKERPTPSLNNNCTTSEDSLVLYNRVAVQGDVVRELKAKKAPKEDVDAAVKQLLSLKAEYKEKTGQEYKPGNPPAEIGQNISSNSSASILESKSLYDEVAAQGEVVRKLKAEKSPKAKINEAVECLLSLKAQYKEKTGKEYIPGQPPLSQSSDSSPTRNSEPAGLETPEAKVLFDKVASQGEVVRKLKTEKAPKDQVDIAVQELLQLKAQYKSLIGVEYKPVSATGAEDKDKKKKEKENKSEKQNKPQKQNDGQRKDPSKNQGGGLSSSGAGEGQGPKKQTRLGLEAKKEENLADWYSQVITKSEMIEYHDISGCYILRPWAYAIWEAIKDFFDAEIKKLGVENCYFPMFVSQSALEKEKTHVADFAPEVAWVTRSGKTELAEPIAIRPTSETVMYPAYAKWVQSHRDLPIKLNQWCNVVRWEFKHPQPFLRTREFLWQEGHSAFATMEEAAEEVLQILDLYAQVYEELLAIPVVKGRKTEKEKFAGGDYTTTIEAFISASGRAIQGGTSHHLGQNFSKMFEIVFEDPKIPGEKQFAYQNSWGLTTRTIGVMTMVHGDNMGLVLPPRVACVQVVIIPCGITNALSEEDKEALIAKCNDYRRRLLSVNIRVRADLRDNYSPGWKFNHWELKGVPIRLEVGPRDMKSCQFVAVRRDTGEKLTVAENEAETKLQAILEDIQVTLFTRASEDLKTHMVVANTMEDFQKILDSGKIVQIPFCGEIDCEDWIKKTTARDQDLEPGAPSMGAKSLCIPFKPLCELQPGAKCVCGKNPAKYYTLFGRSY
Method: as §1

His-LRS-(759-1176) = molecular target: T5, His-LRS-(759-1176) (Homo sapiens (Human), UniProt Q9P2J5 759-1176); assay: ELISA competition: His-LRS-(759-1176) added to GST-RagD on plate-coated His-LRS-(1-1176) (FIG. 13b)
T5 construct: not shown: His tag from pET16a vector
T5 sequence: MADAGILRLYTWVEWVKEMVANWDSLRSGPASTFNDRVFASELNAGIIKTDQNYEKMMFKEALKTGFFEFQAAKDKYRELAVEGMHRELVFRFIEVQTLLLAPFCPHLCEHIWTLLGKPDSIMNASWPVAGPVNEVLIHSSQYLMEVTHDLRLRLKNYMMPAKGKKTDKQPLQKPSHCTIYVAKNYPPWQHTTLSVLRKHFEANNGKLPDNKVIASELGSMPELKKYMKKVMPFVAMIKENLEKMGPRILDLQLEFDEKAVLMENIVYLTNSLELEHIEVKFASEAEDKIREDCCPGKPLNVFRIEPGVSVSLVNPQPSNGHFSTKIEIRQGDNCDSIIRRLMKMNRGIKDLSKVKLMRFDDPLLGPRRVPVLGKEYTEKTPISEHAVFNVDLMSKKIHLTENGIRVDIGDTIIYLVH

His-LRS-(1-1176) = molecular target: T6, His-LRS-(1-1176) (Homo sapiens (Human), UniProt Q9P2J5 1-1176); assay: ELISA: plate coated with LRS-(1-1176) (500 ng/ml), GST-RagD detected with anti-GST antibody (FIG. 13a)
T6 construct: Expressed in E. coli BL21(DE3), purified on Ni-chelating agarose, coated on the ELISA plate; not shown: His tag from pET16a vector

HA-tagged RagD = molecular target: B2; assay: in vitro GST pull-down of HA-RagD lysate, anti-HA blot (FIG. 3h)
Method: Binding assay was conducted in 25 mM Tris-HCl buffer (pH7.4) containing 10 mM NaCl, 1 mM MgCl₂, 1 mM EDTA, 0.5 mM EGTA, and 0.5% Triton X-100.

- binding result (His-LRS-(759-1176)): binds
- binding result (His-LRS-(1-1176)): binds
B3: GST-RagD (RagD-(1-400)) (enzyme, UniProt Q9NQL2 1-400, looked up)
chain: MSQVLGKPQPQDEDDAEEEEEEDELVGLADYGDGPDSSDADPDSGTEEGVLDFSDPFSTEVKPRILLMGLRRSGKSSIQKVVFHKMSPNETLFLESTNKICREDVSNSSFVNFQIWDFPGQIDFFDPTFDYEMIFRGTGALIFVIDSQDDYMEALARLHLTVTRAYKVNTDINFEVFIHKVDGLSDDHKIETQRDIHQRANDDLADAGLEKIHLSFYLTSIYDHSIFEAFSKVVQKLIPQLPTLENLLNIFISNSGIEKAFLFDVVSKIYIATDSTPVDMQTYELCCDMIDVVIDISCIYGLKEDGAGTPYDKESTAIIKLNNTTVLYLKEVTKFLALVCFVREESFERKGLIDYNFHCFRKAIHEVFEVRMKVVKSRKVQNRLQKKKRATPNGTPRVLL
notes: range 1-400; Expressed in E. coli BL21, purified on GSH agarose; also called peptide spanning aa 1-400 of RagD; RagD protein; not shown: glutathione S-transferase (GST) tag from pGEX4T3 vector (GE healthcare)

- binding result (HA-tagged RagD): no binding
B4: GST-LRS fragment 971-1176 (enzyme)
chain: VIASELGSMPELKKYMKKVMPFVAMIKENLEKMGPRILDLQLEFDEKAVLMENIVYLTNSLELEHIEVKFASEAEDKIREDCCPGKPLNVFRIEPGVSVSLVNPQPSNGHFSTKIEIRQGDNCDSIIRRLMKMNRGIKDLSKVKLMRFDDPLLGPRRVPVLGKEYTEKTPISEHAVFNVDLMSKKIHLTENGIRVDIGDTIIYLVH
notes: not shown: glutathione S-transferase (GST) fusion tag

Second part, the binder before the results:

B1: endogenous RagD of 293T cells (enzyme, UniProt Q9NQL2 1-400, looked up)
chain: MSQVLGKPQPQDEDDAEEEEEEDELVGLADYGDGPDSSDADPDSGTEEGVLDFSDPFSTEVKPRILLMGLRRSGKSSIQKVVFHKMSPNETLFLESTNKICREDVSNSSFVNFQIWDFPGQIDFFDPTFDYEMIFRGTGALIFVIDSQDDYMEALARLHLTVTRAYKVNTDINFEVFIHKVDGLSDDHKIETQRDIHQRANDDLADAGLEKIHLSFYLTSIYDHSIFEAFSKVVQKLIPQLPTLENLLNIFISNSGIEKAFLFDVVSKIYIATDSTPVDMQTYELCCDMIDVVIDISCIYGLKEDGAGTPYDKESTAIIKLNNTTVLYLKEVTKFLALVCFVREESFERKGLIDYNFHCFRKAIHEVFEVRMKVVKSRKVQNRLQKKKRATPNGTPRVLL
notes: Endogenous protein in 293T cell lysates, detected with anti-RagD antibody
- binding result [1]: binds

Binder: B2
- binding result [2]: no binding
- binding result [3]: no binding
- binding result [4]: no binding
